Assay results: PMC4517869, “EIN3 and ORE1 Accelerate Degreening during Ethylene-Mediated Leaf Senescence by Directly Activating Chlorophyll Catabolic Genes in Arabidopsis”

Tests used:
MBP-N-EIN3 [1] = molecular target: T1, MBP-N-EIN3 (Arabidopsis thaliana, UniProt O24606 1-314); experiment: competition; unlabeled 800-fold excess vs PAO-EBS; LightShift Chemiluminescent EMSA kit binding buffer (composition, pH, temperature not given); 400 ng protein, 12.5 fmol 5'-biotin probe, 1 ug poly(dI-dC), 15 min; settings: protein: recombinant; tags: N-terminal MBP (pMAL-c5g); chain copies: 2; blunt
T1 sequence: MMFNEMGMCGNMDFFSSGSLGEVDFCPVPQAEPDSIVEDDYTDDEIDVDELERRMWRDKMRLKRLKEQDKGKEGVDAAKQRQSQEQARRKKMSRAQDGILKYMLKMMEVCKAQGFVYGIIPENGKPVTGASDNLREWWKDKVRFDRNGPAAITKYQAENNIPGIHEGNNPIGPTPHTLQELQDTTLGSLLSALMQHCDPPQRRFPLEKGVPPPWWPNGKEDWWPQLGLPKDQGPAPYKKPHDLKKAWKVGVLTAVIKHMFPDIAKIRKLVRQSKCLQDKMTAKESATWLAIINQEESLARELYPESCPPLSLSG

MBP-N-EIN3 [2] = molecular target: T1, MBP-N-EIN3; experiment: EMSA; LightShift Chemiluminescent EMSA kit binding buffer (composition, pH, temperature not given); 400 ng protein, 12.5 fmol 5'-biotin probe, 1 ug poly(dI-dC), 15 min; settings: protein: recombinant; tags: N-terminal MBP (pMAL-c5g); chain copies: 2; label: 5'-biotin; blunt
MBP-N-EIN3 [3] = molecular target: T1, MBP-N-EIN3; experiment: competition; unlabeled 800-fold excess vs NYC1-EBS; LightShift Chemiluminescent EMSA kit binding buffer (composition, pH, temperature not given); 400 ng protein, 12.5 fmol 5'-biotin probe, 1 ug poly(dI-dC), 15 min; settings: protein: recombinant; tags: N-terminal MBP (pMAL-c5g); chain copies: 2; blunt
MBP-ORE1 = molecular target: T2, MBP-ORE1 (Arabidopsis thaliana, UniProt Q9FKA0 1-285); experiment: EMSA; LightShift Chemiluminescent EMSA kit binding buffer (composition, pH, temperature not given); 400 ng protein, 12.5 fmol 5'-biotin probe, 1 ug poly(dI-dC), 15 min; settings: protein: recombinant; tags: N-terminal MBP (pMAL-c5g); chain copies: 2; label: 5'-biotin; blunt
T2 sequence: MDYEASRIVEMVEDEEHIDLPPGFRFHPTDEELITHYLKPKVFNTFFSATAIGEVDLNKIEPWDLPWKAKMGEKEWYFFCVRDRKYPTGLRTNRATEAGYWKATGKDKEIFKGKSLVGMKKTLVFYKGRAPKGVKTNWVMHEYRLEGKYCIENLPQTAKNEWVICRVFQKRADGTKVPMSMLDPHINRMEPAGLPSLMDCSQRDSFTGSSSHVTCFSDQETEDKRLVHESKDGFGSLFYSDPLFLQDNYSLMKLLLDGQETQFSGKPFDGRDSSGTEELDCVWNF

MBP-N-EIN3 [4] = molecular target: T1, MBP-N-EIN3; experiment: competition; unlabeled 800-fold excess vs NYE1-EBS; LightShift Chemiluminescent EMSA kit binding buffer (composition, pH, temperature not given); 400 ng protein, 12.5 fmol 5'-biotin probe, 1 ug poly(dI-dC), 15 min; settings: protein: recombinant; tags: N-terminal MBP (pMAL-c5g); chain copies: 2; blunt
MBP-N-EIN3 [5] = molecular target: T1, MBP-N-EIN3; experiment: competition; unlabeled 800-fold excess vs ORE1-EBS; LightShift Chemiluminescent EMSA kit binding buffer (composition, pH, temperature not given); 400 ng protein, 12.5 fmol 5'-biotin probe, 1 ug poly(dI-dC), 15 min; settings: protein: recombinant; tags: N-terminal MBP (pMAL-c5g); chain copies: 2; blunt

B1: PAO-EBSm (dsDNA)
DNA 1: GCTTGAAATAAAAAAAAACAGAAGAGTA
DNA 2: TACTCTTCTGTTTTTTTTTATTTCAAGC
- binding result (MBP-N-EIN3 [1]): no binding

B2: NYE1-EBS (dsDNA)
DNA 1: GTTTAGGTAAGCAATACGAACCTGGATAAACGAAATGC
DNA 2: GCATTTCGTTTATCCAGGTTCGTATTGCTTACCTAAAC
- binding result (MBP-N-EIN3 [2]): binds

B3: NYC1-EBSm (dsDNA)
DNA 1: TAATTTACTCAAAAAAAAAAGTAATGAC
DNA 2: GTCATTACTTTTTTTTTTGAGTAAATTA
- binding result (MBP-N-EIN3 [3]): no binding

B4: NYC1-EBS (dsDNA)
DNA 1: TAATTTACTCAGGTACATAAGTAATGAC
DNA 2: GTCATTACTTATGTACCTGAGTAAATTA
- binding result (MBP-N-EIN3 [2]): binds

B5: NYE1-OBS (dsDNA)
DNA 1: GTGGTTTCAGTGTACGAACACGCAAGAACTC
DNA 2: GAGTTCTTGCGTGTTCGTACACTGAAACCAC
- binding result (MBP-ORE1): binds

B6: NYE1-EBSm (dsDNA)
DNA 1: GTTTAGGTAAGCAATTTTTTTTTGGATAAACGAAATGC
DNA 2: GCATTTCGTTTATCCAAAAAAAAATTGCTTACCTAAAC
- binding result (MBP-N-EIN3 [4]): no binding

B7: PAO-EBS (dsDNA)
DNA 1: GCTTGAAATAAGATTCATCAGAAGAGTA
DNA 2: TACTCTTCTGATGAATCTTATTTCAAGC
- binding result (MBP-N-EIN3 [2]): binds

B8: ORE1-EBSm (dsDNA)
DNA 1: ATACTTTACAAGGGTAATGCATGCATAC
DNA 2: GTATGCATGCATTACCCTTGTAAAGTAT
- binding result (MBP-N-EIN3 [5]): no binding

B9: NYC1-OBS (dsDNA)
DNA 1: GAGGTTGCTGTAACGTGTGGCCATCACAC
DNA 2: GTGTGATGGCCACACGTTACAGCAACCTC
- binding result (MBP-ORE1): binds

B10: NOL-OBS (dsDNA)
DNA 1: AGCTTGCTCGCTTACGCAACTCTCTCTCT
DNA 2: AGAGAGAGAGTTGCGTAAGCGAGCAAGCT
- binding result (MBP-ORE1): binds

B11: PAO-OBS (dsDNA)
DNA 1: ATTGCATACTTGCACGCAATCTCTTCTTC
DNA 2: GAAGAAGAGATTGCGTGCAAGTATGCAAT
- binding result (MBP-ORE1): binds

B12: ACS2-OBS (dsDNA)
DNA 1: GGAATTATGTGGAGGACGTACGTTTATACATGTGCAGACTACAAC
DNA 2: GTTGTAGTCTGCACATGTATAAACGTACGTCCTCCACATAATTCC
- binding result (MBP-ORE1): binds
